Measurements reported in publication PMC4778250 (ACS Central Science, 2015).

Key:
[1] = target: T1, mouse Class II MHC complex (Mus musculus C57BL/6 (H-2b; I-A b), UniProt P14434;P14483); experiment: flow cytometry on cells
[2] = target: T1, mouse Class II MHC complex; experiment: flow cytometry on cells; remark: listed apart in the source

T1 sequence (P14434 24-256, chain 1 of 2): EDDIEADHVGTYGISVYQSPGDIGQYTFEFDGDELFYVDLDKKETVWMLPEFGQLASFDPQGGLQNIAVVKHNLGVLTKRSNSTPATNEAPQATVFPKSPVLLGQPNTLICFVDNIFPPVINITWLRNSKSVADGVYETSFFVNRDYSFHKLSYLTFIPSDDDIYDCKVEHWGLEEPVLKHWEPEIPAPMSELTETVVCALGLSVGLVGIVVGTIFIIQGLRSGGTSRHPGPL
T1 sequence (P14483 28-265, chain 2 of 2): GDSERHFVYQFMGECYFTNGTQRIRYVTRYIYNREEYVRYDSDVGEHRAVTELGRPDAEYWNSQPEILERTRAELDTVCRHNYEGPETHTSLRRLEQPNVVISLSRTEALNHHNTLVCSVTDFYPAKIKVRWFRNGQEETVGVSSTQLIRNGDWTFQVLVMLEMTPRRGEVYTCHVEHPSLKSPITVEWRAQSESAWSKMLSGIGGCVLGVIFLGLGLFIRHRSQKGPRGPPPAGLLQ

binding result [1]	EC50 [2]	Binder
no binding		VHH4 (specific for human Class II MHC) (VHH) VHH: QVQLQESGGGLVQAGGSLRLSCAASGSTLSSYGMGWYRQAPGKQREVVATISATGSISYADSVKGRFTISRDSAKNTMYLQLNSLTPEDTAVYYCNTIYRSTLYWGQGTQVTVSS
	55 to 60 nM	VHH7 (anti-mouse Class II MHC single domain antibody) (VHH) VHH: QVQLQESGGGLVQAGDSLRLSCAASGRTFSRGVMGWFRRAPGKEREFVAIFSGSSWSGRSTYYSDSVKGRFTISRDNAKNTVYLQMNGLKPEDTAVYYCAAGYPEAYSAYGRESTYDYWGQGTQVTVSS
